{"source": "patent US20210040175A1", "molecular_target": "human CD20 (human) (UniProt P11836)", "sequence (P11836 whole entry)": "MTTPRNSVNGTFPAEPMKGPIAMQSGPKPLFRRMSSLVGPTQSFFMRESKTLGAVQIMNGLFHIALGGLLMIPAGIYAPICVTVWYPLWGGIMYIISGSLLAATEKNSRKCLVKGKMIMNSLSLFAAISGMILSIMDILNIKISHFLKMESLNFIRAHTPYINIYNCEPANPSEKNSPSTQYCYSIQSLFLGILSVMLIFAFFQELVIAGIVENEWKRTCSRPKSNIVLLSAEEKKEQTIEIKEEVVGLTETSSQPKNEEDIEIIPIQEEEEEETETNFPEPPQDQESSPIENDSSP", "assay": "cell-based or functional assay"}
{"substance": "Rituximab (antibody)", "values": [{"measurement": "ADCC by haNK cells for SUP-B15^CD20 at the highest 10:1 ET ratio", "result": 60, "unit": "%"}]}
